From the supplement of paper PMC10126150
± gives the standard deviation of the averaged measurements.

System: ATP
Assay: switch fluorescence ratio, 500 uM ATP over buffer (Cy3 cluster intensity, sum of 5 cycles each) (fold (ratio)); higher = stronger signal-on switching upon ATP binding; sequences stand for … in TCGTCGGCAGCGTCAGATGTGTATAAGAGACAGTTTTTTTTTTTTTTTTTTTTTTTTT…TC
Settings: aptamer strand: ATP DNA aptamer (quencher-CACCTGGGGGAGTATTGCGGAGGAAGG + anchor), 100 nM annealed; ATP concentration: 500 uM
Method in brief: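 Per cluster, summed Cy3 intensity from the target cycles was divided by that from the buffer cycles to give the fluorescence ratio, then averaged per switch-domain sequence. Clusters outside 100-1000 RFU were excluded. The Cy3-labelled switching-strand clusters, on a modified Illumina MiSeq flow-cell, were annealed to 100 nM quencher-labelled ATP aptamer and imaged in selection buffer, then after 15 min with 500 uM ATP at 22 °C, for five cycles with NaOH stripping and re-annealing between them.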
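Further: ATP exposure 15 min at 22 °C before imaging.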

Sequence | switch fluorescence ratio
TACAGCACTG | 1.29 ± 0.15
CATTATCTGG | 1.01 ± 0.072
ACCTATTTTT | 1.01 ± 0.017
CTTAGCTCTT | 1.03 ± 0.022
GATCTTTCCG | 1.08 ± 0.059
AAGTGGGCCC | 0.983 ± 0.013
GAGCTGAATG | 0.9518 ± 0.0063
CCAGCAAGAT | 4.63 ± 0.51
GGTTAATTTT | 1.02 ± 0.028
ACATGAGATT | 1.04 ± 0.015
CAATACATAT | 1.07 ± 0.023
AGTCCGTCTA | 1.01 ± 0.05
CGCGGGGTAA | 1.04 ± 0.011
AGCACATTTG | 0.97 ± 0.017
TTTGTAAAAA | 0.9829 ± 0.0094
AGTGTGTGGA | 1.04 ± 0.021
GGGACGAGGG | 1.03 ± 0.035
TTGACTAGCT | 1.08 ± 0.09
CGTGGTCGTG | 0.9672 ± 0.00049
TGGGAAGGGA | 1.2 ± 0.37
GAAAGGCTCT | 0.9793 ± 0.0031
ACGTAGTCAT | 1.04 ± 0.03
AGTCCCGCCT | 1.12 ± 0.14
ATAAGGCGAG | 0.998 ± 0.025
GAGATCGGTA | 1.006 ± 0.0069
AGGAAGCAG | 1.003 ± 0.0027

Sequence | switch fluorescence ratio
CTTGGTGCTT | 0.974 ± 0.021
CTGAGTTGTT | 0.989 ± 0.08
ACATAGTCGA | 1.03 ± 0.045
ACGGTGAGGT | 1.02 ± 0.016
TTTCGGAAAC | 1.1 ± 0.017
GGTCCTGGGA | 1.02 ± 0.059
TTTAAACGCT | 0.997 ± 0.036
TTTTGGAAAT | 1.02 ± 0.027
TGAGGTCCCA | 1.01 ± 0.014
GCTAAGTATG | 1.04 ± 0.043
TTTTTTTG | 0.997 ± 0.026
AAGTTGGGTG | 1 ± 0.025
TCATCGGCAT | 4.07 ± 1.3
CGGTGGGCGC | 0.974 ± 0.091
TTACCAGGGG | 1.4 ± 0.25
TGCTTCATTT | 1.023 ± 0.0018
TGTACGATGC | 1.12 ± 0.014
TAAAAGTAGT | 1.03 ± 0.041
TTCGGGGTGT | 1.01 ± 0.044
GATTTTTATT | 0.988 ± 0.025
GGGGGGAAGC | 1.04 ± 0.064
TGGGGGGCGG | 1.02 ± 0.03
AGTCATGGAG | 0.987 ± 0.042
AGTTAGGAGG | 0.947 ± 0.053
TAATGCTGTG | 0.984 ± 0.036
GAAGGAATCG | 0.995 ± 0.048

Sequence | switch fluorescence ratio
TTTCAGTTGG | 1.02 ± 0.015
CACGGTTTCT | 1.09 ± 0.13
TTAAATCCGT | 0.989 ± 0.021
AAAGGTACGA | 1.02 ± 0.016
ACTCGGGTGG | 1.019 ± 0.0096
AGGGGATGGG | 1.03 ± 0.033
AGTTTAAGAT | 1.005 ± 0.0071
AAAACGCATG | 1.05 ± 0.021
CTATTTGGCA | 1.0113 ± 4.2e-05
TTGGCAAGCT | 1.06 ± 0.072
GGTAATATAC | 1.057 ± 0.0076
GTTTGTGTTG | 0.993 ± 0.017
GGTCAAATAA | 0.99 ± 0.042
GCGATAGTTG | 1.02 ± 0.053
AAGAATATAT | 0.991 ± 0.018
GAGCGAAGGA | 1.01 ± 0.029
TAAAACGCGT | 1.68 ± 0.94
AGTTAACTGT | 0.996 ± 0.032
GTTCGGGGTA | 0.995 ± 0.031
TAGAGAGCTT | 0.986 ± 0.036
CGGATGAGGG | 1.01 ± 0.044
TTTTGAAGCC | 1.03 ± 0.014
TTATTAGGGC | 1 ± 0.083
TAAATAAATG | 0.976 ± 0.048
GAGGGACGCT | 1.02 ± 0.033
CGTGTCCGTG | 1.01 ± 0.011

Sequence | switch fluorescence ratio
TCGTCGTCCT | 1.02 ± 0.024
TTATTTGCGG | 0.989 ± 0.025
AGGCTGGGGA | 1.01 ± 0.057
GGGTCTTTGA | 1.03 ± 0.041
TGCCGGGGGT | 1.03 ± 0.088
CGGATGGGGA | 0.993 ± 0.028
AGGCAACTAG | 1.05 ± 0.027
ATCTATCGGA | 1.0073 ± 0.00071
GCACGAGTGC | 0.97 ± 0.02
CGGAGTAAGA | 2.53 ± 0.15
GGTCACTGCG | 0.9955 ± 0.0064
GATACTTGGG | 0.989 ± 0.035
GCCGGGGACA | 1.03 ± 0.053
AGACAATATT | 0.979 ± 0.032
TTCCATTTTG | 0.992 ± 0.032
TCAAAATTAT | 1.02 ± 0.043
GAGCTAGGGT | 0.9905 ± 0.006
GACGTTAGGG | 0.957 ± 0.042
GCCCCCTTGG | 2.02 ± 0.026
TCTGTAATTT | 1.41 ± 0.59
CGGTGTGGGA | 0.996 ± 0.044
GTGTTGAGGC | 0.974 ± 0.05
GGATGTGAAG | 0.9818 ± 0.0027
ACGAGGGGAG | 1.02 ± 0.016
GGTTATAGTA | 0.989 ± 0.042
GGGAGGCAAT | 1.46 ± 0.38

Sequence | switch fluorescence ratio
TAATGCGGGA | 1 ± 0.027
GGAACTCATG | 0.959 ± 0.046
ATAAGGAGTA | 1 ± 0.016
AGGAGAGGAG | 1.02 ± 0.038
GGTCATAGGT | 0.994 ± 0.022
CAGGCTTGG | 0.994 ± 0.011
ATTCCTTTGT | 1.01 ± 0.026
GGTGCGGGAT | 0.992 ± 0.043
TGGGGGGTGC | 1.13 ± 0.4
AGGGGGGTG | 1 ± 0.039
GGTTATGTTG | 0.977 ± 0.047
CGACACCGTT | 1.03 ± 0.056
CTTTTTAGAG | 0.994 ± 0.015
GAAAGAGATG | 1.003 ± 0.008
AAAATTGGTT | 1.009 ± 0.007
AAGTGACAGG | 1 ± 0.022
TTAATAGCGG | 0.997 ± 0.049
CGTAATGCTT | 1.17 ± 0.032
GGGGCAGGAG | 1.01 ± 0.06
TATTACTCAG | 1.03 ± 0.025
CATTGCCCGT | 0.989 ± 0.017
GACGGGGGAT | 1.081 ± 0.0031
TGAGTTGTGT | 1.03 ± 0.075
AATTTCGGAG | 1.02 ± 0.026
GAGCAGGGGT | 1.04 ± 0.063
ACTCGGCCC | 1.23 ± 0.015

Sequence | switch fluorescence ratio
AAAAATGCCG | 0.99 ± 0.019
GTTAAGGGGC | 0.996 ± 0.017
GCTGGGATTA | 0.984 ± 0.012
AGTGCAAAAG | 1.06 ± 0.029
GAGGGTATTT | 0.978 ± 0.03
AATGAATTTG | 0.975 ± 0.043
GGGTCATGAT | 1.01 ± 0.021
TTCCGTCTAT | 1.08 ± 0.086
AAAAATTGTG | 1.01 ± 0.046
AGAGATGCTT | 0.99 ± 0.032
GCAGTGGGGG | 1 ± 0.08
GATTATAAGT | 0.99 ± 0.017
GTGATAAAAT | 1.01 ± 0.031
TAGATGAGGC | 1.01 ± 0.061
TGCAGGGAGT | 1.04 ± 0.037
GTTTGGGTGG | 0.9979 ± 0.0065
TAAAAGGGAG | 1.03 ± 0.058
TGTAAGGGGG | 0.989 ± 0.039
CATAGTTTGC | 0.9979 ± 0.0053
ATGGGCTATT | 0.994 ± 0.038
TGTGTCAGGT | 0.997 ± 0.05
AGTTTGTTCC | 1.02 ± 0.047
GATTTACAGC | 1.02 ± 0.054
